Results on two substances are retold here after patent US20120071394A1.

This assay deals with human C5a receptor (C5aR) (human) (UniProt P21730). The experiment in a line: cell-based or functional assay.
Chain of human C5a receptor (C5aR) (human) (P21730 whole entry): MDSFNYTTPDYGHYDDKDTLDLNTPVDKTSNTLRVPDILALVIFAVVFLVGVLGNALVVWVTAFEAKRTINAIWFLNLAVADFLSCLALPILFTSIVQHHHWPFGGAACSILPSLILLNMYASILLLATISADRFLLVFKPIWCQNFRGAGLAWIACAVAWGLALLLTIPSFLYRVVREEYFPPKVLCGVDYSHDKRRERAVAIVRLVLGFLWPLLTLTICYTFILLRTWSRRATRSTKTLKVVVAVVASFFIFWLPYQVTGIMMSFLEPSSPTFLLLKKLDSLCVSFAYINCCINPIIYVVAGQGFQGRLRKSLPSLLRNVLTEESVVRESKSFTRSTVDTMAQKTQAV

For ADC-1004 (from UniProt A6QIG7 59-138), the C5aR blocking activity (in neutrophils), % of wt CHIPS1-121 (% of wt CHIPS1-121) was above 50; the Chemotaxis IC50 turned out to be 49 nM; the IC50 of inhibition of calcium release, ratio to CHIPS1-121 (fold of the IC50 of CHIPS1-121) worked out at 2; the IC50 of inhibition of neutrophil migration towards C5a, ratio to CHIPS1-121 (fold of the IC50 of CHIPS1-121) came out at 4. For the same substance, the concentration needed for 50% inhibition of calcium release (IC50), neutrophils stimulated with C5a came to 0.4 nM.
For the substance “Wild-type CHIPS1-121 (Chemotaxis Inhibitory Protein of Staphylococcus aureus) (from UniProt A6QIG7 29-149)”, the Chemotaxis IC50 came to 8.2 nM.
